The source of these data is PMC5845931.

As a reminder, the Kd is the equilibrium constant for the complex coming apart.

Assay [1] deals with PepTSt wild type, proton-dependent oligopeptide transporter from Streptococcus thermophilus (Streptococcus thermophilus) (UniProt Q5M4H8). Nature of the assay: MST; label-free (intrinsic tryptophan fluorescence of PepTSt); 125 nM PepTSt constant, peptide titrated up to the millimolar range; 22°C; pH 7.5, 100 mM Tris-HCl, 150 mM NaCl, 0.03% DDM.
Assay [2] shares this target. Nature of the assay: MST; label-free (intrinsic tryptophan fluorescence of PepTSt); 125 nM PepTSt constant, peptide titrated; 22°C; pH 4.5, 100 mM citrate, 150 mM NaCl, 0.03% DDM.
The target is the same in assay [3]. Nature of the assay: MST; label-free (intrinsic tryptophan fluorescence of PepTSt); 125 nM PepTSt constant, peptide titrated up to the millimolar range; 22°C; pH 7.5, 100 mM HEPES, 150 mM NaCl, 0.03% DDM.
Assay [4] shares this target. In words: MST; label-free (intrinsic tryptophan fluorescence of PepTSt); 125 nM PepTSt constant, peptide titrated up to the millimolar range; 22°C; pH 7.5, 100 mM NaPi, 150 mM NaCl, 0.03% DDM.
For assay [5] the target is unchanged. In words: MST; label-free (intrinsic tryptophan fluorescence of PepTSt); 125 nM PepTSt constant, peptide titrated; 22°C; pH 5.5, 100 mM citrate, 150 mM NaCl, 0.03% DDM.
For assay [6] the target is unchanged. In words: MST; label-free (intrinsic tryptophan fluorescence of PepTSt); 125 nM PepTSt constant, peptide titrated; 22°C; pH 5.0, 100 mM citrate, 150 mM NaCl, 0.03% DDM.

Ala-Ala (peptide): the Kd in assay [1] worked out at 8.59 mM.
Ala-Asp (peptide) came in with a Kd in assay [1] of over 100 mM.
Consider Ala-Gln (peptide), for which the Kd in assay [1] is 6.82 mM.
In the case of Ala-Leu (peptide), the equilibrium dissociation constant (Kd) was over 50 mM in assay [2] and 0.56 mM in assay [3].
Ala-Phe (peptide) had a dissociation constant (Kd) in assay [1] of 0.95 mM.
In the case of Asp-Glu (peptide), the Kd in assay [1] was over 50 mM.
In the case of Leu-Ala (peptide), the dissociation constant (Kd) is 9.56 mM in assay [4]; over 100 mM in assay [2]; 13.3 mM in assay [3]; 13.8 mM in assay [1]; 23 mM in assay [5]; 47 mM in assay [6].
As to Leu-Leu (peptide), the Kd in assay [1] turned out to be 3.56 mM. In other words, the millimolar range.
In assay [1], Phe-Ala (peptide) had a Kd of 10.9 mM.
